For 14 sequences, protein production results are on record in a protein production outcome set (Wang et al. 2014).

This series in a line: label from the status in PepcDB records.
Turning to “MKLQLYVLRTVATRILGAALILMSVLQILDLLDVTSDILDRGLGMAGVGYYAALRLPRLFEQVAPIAVLAGGLFAFSQLARESAIVAMRASGISGYRIVGMAVPAAVAVMLLDALCGQVLAPRADPTLADWWRNTTPVAERKEPVPRTFRAGADLVIGANASADGRTITGVTIFRRDSKGILVEKVEAPAARYDGKAWTLEQPKTTRFAGDLSQASTAAATSWPTALRPQDVQGLFGDDSMPTAASARRALENGGSDRPESFYATHLQAAFASPFVSLVMLLLSAPVALANFRSGQGAVLLTGGLAAGLMFLVANGMLTALGESGALTPFLAVWAAPAIFGALAVRTFLALEG”, the protein production entry is “failed”.
As for “MISIPVAQQQKLPRLVLPRVYGFPPNRETLGGTAYLIVENDGNTLIDSPPWTDGSQHWLREQGGVKRLILTHRGAIARVRAIQDTFDCEVMIHAQEAYLLPQVTVTPFNHHLAIGETLEILWTPGHSPGSACVYWSCQGGVLFTGRHLLPTPTGELAPIKTATTFHWPRQLRSVEALKAFCRQKSLSYLCPGANMGFLRGTLAIANAQAVLQGLSVDNLLCDKFLEHHHHHH”, the entry is “failed”; as for “HALQAGRLGSTVFVANLDYKVGWKKLKEVFSMAGVVVRADILEDKDGKSRGIGTVTFEQSIEAVQAISMFNGQLLFDRPMHVKMDERALPKGDFFPPERPQQ”, “failed”.
In the case of “NQTRLNKLQKTLVDKQIDFAFISDYKTIQYITGFGSNPYERILAMIVFADKDPFIFAPALEVEVVKSVGWPYDLYGYQDNEDGLEMIYDHIKERSANPKKIATEQGNLTLSRFNRLQAAFPDADYSFNLTPVIEHQR” it was “not failed”; in that of “SIPMRLLSDCPQFSRKTVKLLTNGGDMLELCYELRLPFVHWISVNQKSSFKRYEISHVYRRAIGHSPPNPCLQADFDIVGGTLSLTEAEVLKVIVDITTHIFHRGSCDIHLNHGDLLDAIWSWAGIKAEHRRKVAELLSMMGSLRPQSSERKLKWVFIRRQLLQELKLPEAVVNRLQTVASRFCGDADQALPRLRGALRADRPTRKALDELSNLLTYLRVWRIEEHVHIDVLMPPTESYHRNLFFQVFLTKENSSGTSNDGVLLAVGGRYDWLVQEVCDREHKMNLPGAVGVSLALETIFQHLPMDLRPIRNEVSTSVLVCSRGGGGLLVQRMELVAELWEKSIKAEFVPTPDPSLTEQYEYANEHEIKCLVIITESGVAQNQIEFVKVRHLELKKEKVVGR”, “not failed”.
“MEKYNSLSDFLKEFYIPTYVLSAETEEEEEEESRPTPASPVLVFINSKSGGQLGGELILTYRSLLNHNQVFDLDQETPDKVLRRIYLNLERLKDDDFARQIREKLKIIVAGGDGTAGWLLGVVCDLKLSHPPPIATVPLGTGNNLPFAFGWGKKNPGTDRTAVESFLEQVLKAKVMKIDNWHILMRMKTPKEGGSCDPVAPLELPHSLHAFHRVSPTDELNKEGCHTFRGGFWNYFSLGMDAQISYAFHSERKLHPEKFKNQLVNQSTYVKLGCTQGWFCASLFHPASRNIAQLAKVKIATRNGQWQDLHIPHSIRSIVCLNLPSFSGGLNPWGTPNPRKQRDRGLTPPFVDDGLIEVVGFRNAWHGLVLLAPNGHGTRLAQANRIRFEFHKGATDHTFMRMDGEPWKQPLPLDDETVMVEISHLGQVNMLATHDCRSRSVFDPSTPRHQDGAEDYDDNEDDSVAEGEEFRKFGAADTFKIPDEGEHSNKKGRASRRRNSNVHGWSHVL”: the protein production entry was “not failed”.
As for “MNRAFSRKKDKTWMHTPEALSKHFIPYNAKFLGSTEVEQPKGTEVVRDAVRKLKFARHIKKSEGQKIPKVELQISIYGVKILEPKTKEVQHNCQLHRISFCADDKTDKRIFTFICKDSESNKHLCYVFDSEKCVSIPDVVGWFVLFYKPGIVLLLALAKYLKMNNFL”, the entry is “failed”.
With “MRKLTFLLTFFMLLGSVQLQAKEYAIKDIPMVHLQNRTRYVSNPDGILSSTAVTTMDSILYALEQKTGIQTLVVAVTGIEGGDCFDFAHRLGQETGVGQKERDNGLVILLSTDERCVQFATGYGLEGILPDAICKRIQNRYMLPYFKDNNWNAGMVAGIRAVNGYLDGSMENIGNDESEDDPLEFIIIFFVIFGGFIGIGLYANWRKTRCPHCKKHKLQRLSSKVIDRSNGTKTEEVVYKCRNCGHILRRKERSRDENYKGPRGGGPFIGGMGGGFFGGHGGSGGGFSGGSFGGGSFGGGGAGSRF”, the protein production entry is “failed”.
In the case of “MSLSYVHTEIQNDALYITLDYPEKKNGLDAELGTSLLEAIRAGNNETSIHSIILQSKHRAYFSSGPRLEDLLICASDQSDVRLREVLHVLNHCVLEIFTSPKVTVALINGYAYGGGFNMMLACDRRIALRRAKFLENFHKMGISPDLGASYFLPRIIGYEQTMNLLLEGKLFTSEEALRLGLIQEICENKQELQERVKNYLKAVSEGYVPAIAATKKLLKGKAAEELKQQLEQETEELVALFKQTEIKKRLEALVEGHHHHHH” it was “not failed”; in that of “MSLDVYVNFPADGHVREIAKTVLDGFDLHWYPDYYDAEAQVIKDRYVLGKRTKMIQAISAGVDHIDVNGIPENVVLCSNAGAYSISVAEHAFALLLAHAKNILENNELMKAGIFRQSPTTLLYGKALGILGYGGIGRRVAHLAKAFGMRVIAYTRSSVDQNVDVISESPADLFRQSDFVLIAIPLTDKTRGMVNSRLLANARKNLTIVNVARADVVSKPDMIGFLKERSDVWYLSDVWWNEPEITETNLRNAILSPHVAGGMSGEIMDIAIQLAFENVRNFFEGEGHHHHHH”, “not failed”.
On to “MMPLILSNTGEEVVIKKISGSDKTRTFLNSIGFVVGTNVKIVSKIDGNLIIDVKDTRVALDKKMASRIIILEHHHHHH”, for which the protein production result is reported as “failed”.
“MYYLFIFEMLWLLFVIVFVSFLSFSDFDRKKVNYFSVVIVGILLSITAGFRNVGGVDTDYAIYKNHYNGELGSYSYELFEPGYNTVVWLGNIVGLSFNLFVFILTSICLLLLLKLIFKYSKYPMLSVMIYLGTYFLFYNMVLMRQMVSVVMFLYCINYTIEKKYIKCLLCFLVGLSFHLSMIVFLPAFFVLRYFKLNIWNIIFILIIGVFLKIVGAINLVMFVGGVIESRMANYLAGDGFTLNIMEYIKMIIIICAILILFPKLIGDYFNEILIKSYCVFFILIFAFGDIEIFFRIAMYFDLVILFLIPILFDKISMTRFSRITIYTLVVIFFAFSFIYRVHNFDNGEFYQYKFFFLE”: the protein production result is reported as “failed”.
As for “MREIIVDNFAGGGGASTGIELAIGRSVDIAINHDPNAVAMHTTNHPDTLHYCESVYSIRPKVATAGRRVGLAWFSPDCRHFSKAKGAKPVEKTIRGLAWIVIRWALDVGPRVMMLENVEEFKTWGPLLAAEMRPDPERVGETFQAFVGMLTTGIPADHPALLECCEFLNISLDSEDAARLVNGLGYTVEYRELRACDYGAPTIRKRFFMVMRRDGQPIVWPEATHGDPKSPAVLAGKLAPWRTAAECIDWSIPAPSIFDRKKPLVENSLKRIARGI”, the entry is “failed”.
Take “MSQSPSPPDSPSASPDSPSASPMHAFLLCAGFGTRMRPVTAETPKSLVTVAGRPLLDHLLDELTAWSALTEIHVAVNHEDAPAFREWAAGHRADLETQGIGLHLHDDGVEAPDDQLGCVGDLRFLLDAVGLPADGALVSGGDSLYRFPLAPLLNAYDGTTNRVLALHEPDPERRAQSSVLQLDGPTVTAVHDDPTGTASTRICPSWLLLSAEGLGAIVPYLDDGGPPDTLGAFLDRLARTHSVQAHRLPQTGHLRLHCNTPDDLEHARKLLRKGPRHVLGPAPVRASLPEPAS”: the protein production result is listed as “failed”.
